Test results: patent US20160159872A1

Assays:
6xHis-CtBP [1] = target: 6xHis-CtBP (UniProt Q13363); assay: competition assay of the CtBP/E1A protein interaction (format not said)
6xHis-CtBP [2] = target: 6xHis-CtBP (UniProt Q13363); assay: competition assay of the CtBP-E1A interaction (AlphaScreen or fluorescence polarization; not said which)
6xHis-CtBP [3] = target: 6xHis-CtBP (UniProt Q13363); assay: competition assay of the CtBP/E1A interaction, FIG. 3
6xHis-CtBP [4] = target: 6xHis-CtBP (UniProt Q13363); assay: fluorescence polarization; unlabeled peptide competes with the FITC-labeled 14mer peptide for CtBP

Substance	IC50 (6xHis-CtBP [1]) [µM]	IC50 (6xHis-CtBP [2]) [µM]	IC50 (6xHis-CtBP [3]) [µM]	IC50 (6xHis-CtBP [4]) [µM]
Tat-E1A-flag (peptide)	1.7	1.7	7.7	–
Wild-type 14mer E1A peptide …	7.26	7.26	–	6
